Where no end group is shown, it is not given here. [ ]: non-standard residue; d: D form. d2Nal = N[C@H](Cc1ccc2ccccc2c1)C(=O)O; Orn = NCCC[C@H](N)C(=O)O; Dab = NCC[C@H](N)C(=O)O; Aib = CC(C)(N)C(=O)O; Inp = O=C(O)C1CCNCC1; GABA = NCCCC(=O)O
Molecular target: Ghrelin/GHRP/GHS Receptor (Rattus norvegicus, UniProt O08725)
Assay: In vivo GH release in rat (serum GH by RIA after i.v. peptide)
Conditions: for Stimulated GH release from rat: Table 2; for Unstimulated Basal GH Release from rat: Table 3; for Unstimulated Basal GH release from rats: Table 5; for Stimulated (S) GH release from rats / Unstimulated GH release from rats: Table 4, non-pentobarbital rats, peptide 30 μg i.v.; for Stimulated (S) GH release from rats: P + S, stimulator 10 μg; for Unstimulated GH release from rats: −S
Method: For the in vivo assay of GH Release in rat, immature female Sprague Dawley rats were obtained from Charles River from Wilmington, Mass. After arrival they were housed at 25° C. with a 14:10 h light:dark cycle. Water and Purina rat chow were available at libitum. Pups were weaned at 21 days of age.
Immature twenty six day old female Sprague Dawley rats, 3-6 rats per treatment dose, were pretreated with pentobarbital 20 minutes before iv injection of vehicle/peptide or peptide plus stimulator. Injection was made as a 0.1 ml solution. For the non-pentobarbital treated rat assay, peptides were administered iv into the tail vein of conscious rats. All animals were sacrificed by guillotine after iv peptide or vehicle. Trunk blood was collected at +10-15 minutes […], allowed to clot, centrifuged and serum stored until assayed for GH levels by RIA. The GH RIA reagents were distributed by the NIH. Control data was collected from rats treated with only the corresponding vehicle in the absence of peptide or stimulator. Control stimulated data was collected from rats treated with stimulator alone in the absence of any peptide.

[1] = peptide antagonist alone 10 μg i.v.
[2] = peptide antagonist alone 1 μg i.v.
[3] = peptide antagonist alone 30 μg i.v.

Sequence of Ghrelin/GHRP/GHS Receptor (O08725 whole entry): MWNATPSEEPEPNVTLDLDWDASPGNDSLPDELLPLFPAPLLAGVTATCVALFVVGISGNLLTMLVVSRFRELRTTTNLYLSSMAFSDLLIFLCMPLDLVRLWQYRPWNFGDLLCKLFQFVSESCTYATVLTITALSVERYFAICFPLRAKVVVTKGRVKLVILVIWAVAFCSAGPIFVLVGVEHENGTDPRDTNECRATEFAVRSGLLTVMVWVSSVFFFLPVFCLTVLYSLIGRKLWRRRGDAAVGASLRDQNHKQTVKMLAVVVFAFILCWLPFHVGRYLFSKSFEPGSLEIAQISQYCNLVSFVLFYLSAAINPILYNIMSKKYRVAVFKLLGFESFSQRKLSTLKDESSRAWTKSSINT

Substance	Unstimulated Basal GH release from rats [1]	Unstimulated Basal GH release from rats [2]	Unstimulated Basal GH release from rats [3]	other results
Glyψ[CH2NH]-DβNal-DLys-Trp-DPhe-Lys-NH2 (G[d2Nal][dK]W[dF]K-NH2; also: reduced Gly-ψ[CH2NH] bond between Gly1 and DβNal2)				Stimulated GH release from rat (peptide antagonist 1 μg i.v. + stimulator DAla-DβNal-Ala-Trp-DPhe-Lys-NH2 1 μg): 2305 ± 320 ng/mL; Stimulated GH release from rat (peptide antagonist 3 μg i.v. + stimulator DAla-DβNal-Ala-Trp-DPhe-Lys-NH2 1 μg): 1990 ± 196 ng/mL; Stimulated GH release from rat (peptide antagonist 10 μg i.v. + stimulator DAla-DβNal-Ala-Trp-DPhe-Lys-NH2 1 μg): 1550 ± 284 ng/mL; Stimulated GH release from rat (peptide antagonist 30 μg i.v. + stimulator DAla-DβNal-Ala-Trp-DPhe-Lys-NH2 1 μg): 946 ± 133 ng/mL; Stimulated GH release from rat (peptide antagonist 100 μg i.v. + stimulator DAla-DβNal-Ala-Trp-DPhe-Lys-NH2 1 μg): 462 ± 122 ng/mL
His-DTrp-Phe-Trp-DPhe-Lys-NH2 (H[dW]FW[dF]K-NH2; N-terminus assumed; SMILES NCCCC[C@H](NC(=O)[C@@H](Cc1ccccc1)NC(=O)[C@H](Cc1c[nH]c2ccccc12)NC(=O)[C@H](Cc1ccccc1)NC(=O)[C@@H](Cc1c[nH]c2ccccc12)NC(=O)[C@@H](N)Cc1c[nH]cn1)C(N)=O)				Unstimulated Basal GH Release from rat (peptide alone 1 μg i.v.): 67 ± 14 ng/mL; Unstimulated Basal GH Release from rat (peptide alone 3 μg i.v.): 141 ± 53 ng/mL; Unstimulated Basal GH Release from rat (peptide alone 10 μg i.v.): 197 ± 70 ng/mL; Unstimulated Basal GH Release from rat (peptide alone 30 μg i.v.): 509 ± 48 ng/mL
His-Trp-DAla-DTrp-Phe-LysNH2 (HW[dA][dW]FK-NH2)				Unstimulated Basal GH Release from rat (peptide alone 1 μg i.v.): 204 ± 44 ng/mL; Unstimulated Basal GH Release from rat (peptide alone 3 μg i.v.): 127 ± 44 ng/mL; Unstimulated Basal GH Release from rat (peptide alone 10 μg i.v.): 83 ± 5 ng/mL
Lys-DHis-DTrp-Phe-NH2 (K[dH][dW]F-NH2; N-terminus assumed; SMILES NCCCC[C@H](N)C(=O)N[C@H](Cc1c[nH]cn1)C(=O)N[C@H](Cc1c[nH]c2ccccc12)C(=O)N[C@@H](Cc1ccccc1)C(N)=O)	121 ± 24 ng/mL			
Tyr-DAla-Phe-Aib-NH2 (Y[dA]F[Aib]-NH2; N-terminus assumed; SMILES C[C@@H](NC(=O)[C@@H](N)Cc1ccc(O)cc1)C(=O)N[C@@H](Cc1ccccc1)C(=O)NC(C)(C)C(N)=O) [Tyr-DAla-Phe-Alb-NH2]				Stimulated (S) GH release from rats: 23 ± 5 ng/mL; Unstimulated GH release from rats: 18 ± 1 ng/mL
Tyr-DAla-Sar-NMePhe-NH2				Stimulated (S) GH release from rats: 24 ± 6 ng/mL; Unstimulated GH release from rats: 18 ± 4 ng/mL
[GABA][dW][dW][Orn]-NH2	90 ± 5 ng/mL	82 ± 28 ng/mL	113 ± 32 ng/mL	
inip-Trp-Trp-Phe-NH2 ([Inp]WWF-NH2; N-terminus assumed; SMILES NC(=O)[C@H](Cc1ccccc1)NC(=O)[C@H](Cc1c[nH]c2ccccc12)NC(=O)[C@H](Cc1c[nH]c2ccccc12)NC(=O)C1CCNCC1)	69 ± 3 ng/mL		81 ± 10 ng/mL	
αAbu-DTrp-DTrp-Orn-NH2	88 ± 18 ng/mL	85 ± 25 ng/mL	50 ± 6 ng/mL	
αγAbu-DTrp-DTrp-Lys-NH2 ([Dab][dW][dW]K-NH2; N-terminus assumed; SMILES NCCCC[C@H](NC(=O)[C@@H](Cc1c[nH]c2ccccc12)NC(=O)[C@@H](Cc1c[nH]c2ccccc12)NC(=O)[C@@H](N)CCN)C(N)=O)	62 ± 15 ng/mL	57 ± 7 ng/mL		Unstimulated Basal GH release from rats (peptide antagonist alone 3 μg i.v.): 84 ± 18 ng/mL
αγAbu-DTrp-DTrp-Orn-NH2	126 ± 27 ng/mL	118 ± 16 ng/mL	79 ± 31 ng/mL	
αγAbu-DTrp-DTrp-Ser-NH2 ([Dab][dW][dW]S-NH2; N-terminus assumed; SMILES NCC[C@H](N)C(=O)N[C@H](Cc1c[nH]c2ccccc12)C(=O)N[C@H](Cc1c[nH]c2ccccc12)C(=O)N[C@@H](CO)C(N)=O)	62 ± 15 ng/mL	80 ± 35 ng/mL	67 ± 8 ng/mL	

Reference: patent US9724381B2 (THE ADMINISTRATORS OF THE TULANE EDUCATIONAL FUND, priority 2009, dated 2017)
